Assay results: US20190048089A1 (Janssen / Centocor, published 2019)
Changes are numbered by the printed parent chain.

T1: cyno CD40 on cyno spleen B cells (Macaca fascicularis (cynomolgus), UniProt P25942 21-277 (human entry))
T1 chain: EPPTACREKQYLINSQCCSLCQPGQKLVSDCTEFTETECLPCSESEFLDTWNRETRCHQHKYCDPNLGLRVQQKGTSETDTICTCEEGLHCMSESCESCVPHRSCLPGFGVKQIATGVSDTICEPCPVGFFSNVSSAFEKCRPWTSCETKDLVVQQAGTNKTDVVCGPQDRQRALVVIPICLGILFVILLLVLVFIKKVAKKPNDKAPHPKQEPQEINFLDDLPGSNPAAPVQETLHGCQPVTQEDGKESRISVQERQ

B1: C40B179 (antibody, human IgG1, lambda)
heavy: EVQLVESGGGLVQPGGSLRLSCAASGFTFSSYAMSWVRQAPGKGLEWVSTINQAGGGTYYADSVKGRFTISRDNSKNTLYLQMNSLRAEDTAVYYCAKEGGKYYYYALDVWGQGTTVTVSSASTKGPSVFPLAPSSKSTSGGTAALGCLVKDYFPEPVTVSWNSGALTSGVHTFPAVLQSSGLYSLSSVVTVPSSSLGTQTYICNVNHKPSNTKVDKKVEPKSCDKTHTCPPCPAPEAAGASSVFLFPPKPKDTLMISRTPEVTCVVVDVSAEDPEVKFNWYVDGVEVHNAKTKPREEQYNSTYRVVSVLTVLHQDWLNGKEYKCKVSNKALPSSIEKTISKAKGQPREPQVYTLPPSREEMTKNQVSLTCLVKGFYPSDIAVEWESNGQPENNYKTTPPVLDSDGSFFLYSKLTVDKSRWQQGNVFSCSVMHEALHNHYTQKSLSLSPGK
light: SYELTQPPSVSVSPGQTASITCSGDKLGDKYAAWYQQKPGQSPVLVIYQDSRRPSGIPERFSGSNSGNTATLTISGTQAMDEADYYCQAWASSTVVFGGGTKLTVLGQPKAAPSVTLFPPSSEELQANKATLVCLISDFYPGAVTVAWKADSSPVKAGVETTTPSKQSNNKYAASSYLSLTPEQWKSHRSYSCQVTHEGSTVEKTVAPTECS
notes: IgG1sigma
B2: C40B183 (antibody, human IgG4 S228P, lambda, F234A L235A)
heavy: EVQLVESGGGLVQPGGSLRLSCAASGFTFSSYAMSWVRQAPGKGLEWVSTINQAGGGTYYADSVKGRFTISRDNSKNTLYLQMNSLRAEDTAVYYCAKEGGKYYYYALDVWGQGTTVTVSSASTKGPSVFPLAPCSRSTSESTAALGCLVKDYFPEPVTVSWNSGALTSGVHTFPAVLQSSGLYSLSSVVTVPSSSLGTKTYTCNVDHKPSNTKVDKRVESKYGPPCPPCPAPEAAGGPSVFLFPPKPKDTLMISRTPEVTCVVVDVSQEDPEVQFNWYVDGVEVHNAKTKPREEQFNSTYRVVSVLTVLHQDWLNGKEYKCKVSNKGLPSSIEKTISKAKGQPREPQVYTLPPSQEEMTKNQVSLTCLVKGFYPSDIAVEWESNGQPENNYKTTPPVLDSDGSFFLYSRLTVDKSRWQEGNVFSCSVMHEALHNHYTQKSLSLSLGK
light: B1 light
notes: IgG4PAA
B3: C40B180 (antibody, human IgG4 S228P, lambda, F234A L235A)
heavy: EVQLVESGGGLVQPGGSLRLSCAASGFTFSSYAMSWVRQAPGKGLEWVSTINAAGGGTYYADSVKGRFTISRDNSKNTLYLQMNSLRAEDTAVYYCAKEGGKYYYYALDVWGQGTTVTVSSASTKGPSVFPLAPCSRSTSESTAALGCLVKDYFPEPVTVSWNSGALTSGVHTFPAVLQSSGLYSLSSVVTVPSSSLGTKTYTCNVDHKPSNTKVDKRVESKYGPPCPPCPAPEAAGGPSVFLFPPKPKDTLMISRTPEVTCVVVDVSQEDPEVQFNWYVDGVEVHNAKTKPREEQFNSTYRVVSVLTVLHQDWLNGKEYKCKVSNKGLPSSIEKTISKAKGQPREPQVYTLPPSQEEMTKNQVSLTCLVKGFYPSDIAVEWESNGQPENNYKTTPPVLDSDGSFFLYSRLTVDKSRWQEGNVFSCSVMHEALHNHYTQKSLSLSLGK
light: B1 light
notes: IgG4PAA
B4: C40B138 (antibody, human IgG4 S228P, lambda, F234A L235A)
heavy: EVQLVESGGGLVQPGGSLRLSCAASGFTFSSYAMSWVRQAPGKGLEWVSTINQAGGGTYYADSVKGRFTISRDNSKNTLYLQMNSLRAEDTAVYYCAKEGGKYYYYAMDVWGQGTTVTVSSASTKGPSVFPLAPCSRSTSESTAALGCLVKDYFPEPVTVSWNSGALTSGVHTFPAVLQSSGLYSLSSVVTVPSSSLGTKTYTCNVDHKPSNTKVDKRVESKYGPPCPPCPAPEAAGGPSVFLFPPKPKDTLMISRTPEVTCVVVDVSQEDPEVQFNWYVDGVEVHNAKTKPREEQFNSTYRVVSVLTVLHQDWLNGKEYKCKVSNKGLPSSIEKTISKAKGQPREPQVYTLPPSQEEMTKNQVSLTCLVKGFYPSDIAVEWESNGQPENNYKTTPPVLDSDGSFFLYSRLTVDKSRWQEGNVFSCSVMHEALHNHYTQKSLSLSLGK
light: B1 light
notes: IgG4PAA
B5: C40B135 (antibody, human IgG4 S228P, lambda, F234A L235A)
heavy: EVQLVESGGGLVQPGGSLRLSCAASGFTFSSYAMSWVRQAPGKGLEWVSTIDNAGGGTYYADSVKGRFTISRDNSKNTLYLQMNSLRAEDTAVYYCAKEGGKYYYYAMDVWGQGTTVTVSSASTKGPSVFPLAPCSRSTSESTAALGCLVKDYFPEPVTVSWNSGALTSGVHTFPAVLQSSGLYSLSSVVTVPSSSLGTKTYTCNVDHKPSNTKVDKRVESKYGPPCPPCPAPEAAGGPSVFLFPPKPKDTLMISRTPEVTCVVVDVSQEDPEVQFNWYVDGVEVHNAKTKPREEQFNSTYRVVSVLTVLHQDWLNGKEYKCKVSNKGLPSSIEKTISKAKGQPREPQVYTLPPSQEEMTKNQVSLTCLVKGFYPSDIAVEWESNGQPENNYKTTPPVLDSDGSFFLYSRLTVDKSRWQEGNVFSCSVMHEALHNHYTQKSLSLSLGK
light: B1 light
notes: IgG4PAA
B6: C40B131 (antibody, human IgG4 S228P, lambda, F234A L235A, V domains shown)
VH: EVQLVESGGGLVQPGGSLRLSCAASGFTFSSYAMSWVRQAPGKGLEWVSTINAAGGGTYYADSVKGRFTISRDNSKNTLYLQMNSLRAEDTAVYYCAKEGGKYYYYAMDVWGQGTTVTVSS
VL: SYELTQPPSVSVSPGQTASITCSGDKLGDKYAAWYQQKPGQSPVLVIYQDSRRPSGIPERFSGSNSGNTATLTISGTQAMDEADYYCQAWASSTVVFGGGTKLTVLG
notes: IgG4PAA
B7: C40B136 (antibody, human IgG4 S228P, lambda, F234A L235A)
heavy: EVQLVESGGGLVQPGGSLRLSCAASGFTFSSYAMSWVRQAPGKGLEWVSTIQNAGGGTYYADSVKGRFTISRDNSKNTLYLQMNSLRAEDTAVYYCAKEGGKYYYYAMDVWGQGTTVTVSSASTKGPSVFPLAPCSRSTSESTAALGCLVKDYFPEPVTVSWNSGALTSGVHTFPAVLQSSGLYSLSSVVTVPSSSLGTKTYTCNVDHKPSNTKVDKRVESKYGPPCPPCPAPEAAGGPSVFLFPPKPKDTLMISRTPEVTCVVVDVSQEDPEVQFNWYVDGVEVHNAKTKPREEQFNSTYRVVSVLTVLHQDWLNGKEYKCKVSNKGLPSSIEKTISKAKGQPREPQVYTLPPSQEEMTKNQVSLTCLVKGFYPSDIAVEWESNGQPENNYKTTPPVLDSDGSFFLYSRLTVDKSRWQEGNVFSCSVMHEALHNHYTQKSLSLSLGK
light: B1 light
notes: IgG4PAA
B8: C40B125 (antibody, human IgG1, lambda)
heavy: B1 heavy with N52Q, Q53N, L108M
light: B1 light
notes: IgG1sigma
B9: C40B127 (antibody, human IgG1, lambda)
heavy: B1 heavy with L108M
light: B1 light
notes: IgG1sigma
B10: C40B124 (antibody, human IgG1, lambda)
heavy: B1 heavy with N52D, Q53N, L108M
light: B1 light
notes: IgG1sigma
B11: C40B16 (antibody, human IgG1, lambda, V domains shown)
VH: B6 VH with K43R, A53N, A54S, Q82H
VL: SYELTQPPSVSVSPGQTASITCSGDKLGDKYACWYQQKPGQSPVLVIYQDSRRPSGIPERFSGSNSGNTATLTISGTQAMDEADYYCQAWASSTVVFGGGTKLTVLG
notes: Wild-type IgG1, lambda light chain; also called parental C40B16

These binders were tested against T2, human CD40 (analyte in SPR) (human, UniProt P25942 21-193) (assay: affinity in benchmark table; method not restated (SPR ProteOn of Example 3 presumed)).
T2 construct: also called huCD40

Row | Kd [nM] | Binder
1 | 0.0343 | B1
2 | 0.107 | B2
3 | 0.0599 | B3

Each binder was assayed against T3, human CD40 on cells (human tonsillar B cells, human dendritic cells, HEK-Blue CD40L cells) (human, UniProt P25942 21-277) (assay: cell-based or functional assay).

Row | IC50, mCD40L-driven DC IL-12p40 production [nM] | IC50, sCD40L-driven DC IL-12p40 production [nM] | Binder
4 | 0.341 | 0.262 | B4
5 | 0.297 | 0.184 | B1
6 | 0.291 | 0.208 | B2
7 | 0.43 | 0.329 | B5
8 | 0.323 | 0.33 | B6
9 | 0.379 | 0.246 | B7
10 | 0.222 | 0.225 | B3
11 | 0.393 | 0.244 | B8
12 | 0.383 | 0.27 | B9
13 | 0.507 | 0.387 | B10

What follows are binders tested against T2, human CD40 (analyte in SPR) (assay: SPR, ProteOn XPR36, mAb captured on anti-human IgG Fc, CD40 as analyte, 25 C, 1:1 Langmuir).
Description: Affinity of the antibodies to human CD40 was assessed using Surface Plasmon Resonance (SPR) using a ProteOn XPR36 system (BioRad). […] Approximately 5000 RU (response units) of mAbs were immobilized. The kinetic experiments were performed at 25° C. in running buffer (DPBS+0.01% P20+100 μg/ml BSA). To perform kinetic experiments, 200 RU of mAbs were captured followed by injections of analytes (human or cyno CD40) at 5 concentrations (in a 4-fold serial dilution). The association phase was monitored for 3 minutes at 50 μL/min, then followed by 15 minutes of buffer flow (dissociation phase). The chip surface was regenerated with two 18 second pulses of 100 mM H₃PO₄ (Sigma, Cat#7961) at 100 μL/min.
The collected data were processed using ProteOn Manager software. First, the data was corrected for background using inter-spots. Then, double reference subtraction of the data was performed by using the buffer injection for analyte injections. The kinetic analysis of the data was performed using a Langmuir 1:1 binding model. The results were reported in the format of Ka (On-rate), Kd (Off-rate) and KD (equilibrium dissociation constant).

Row | Kd [nM] | koff [s⁻¹] | kon [M⁻¹ s⁻¹] | Binder
14 | 0.0599 | 0.000215 | 3.58e+06 | B4
15 | 0.0933 | 0.000267 | 2.86e+06 | B1
16 | 0.121 | 0.00035 | 2.91e+06 | B2
17 | 0.0496 | 0.000145 | 2.93e+06 | B5
18 | 0.0812 | 0.000286 | 3.52e+06 | B6
19 | 0.0343 | 0.000113 | 3.3e+06 | B7
20 | 0.137 | 0.000366 | 2.67e+06 | B3
21 | 0.0368 | 0.000157 | 4.27e+06 | B11
22 | 0.0349 | 0.000136 | 3.89e+06 | B8
23 | 0.0303 | 0.000115 | 3.79e+06 | B9
24 | 0.0416 | 9.56e-05 | 2.3e+06 | B10

Target: T3, human CD40 on cells (human tonsillar B …)
Experiment: cell-based or functional assay
Remark: another data set of the same source

Row | IC50, mCD40L-driven human B-cell proliferation [nM] | IC50, sCD40L-driven human B-cell proliferation [nM] | Binder
25 | 0.106 | 0.048 | B4
26 | 0.178 | 0.132 | B1
27 | 0.14 | 0.103 | B2
28 | 0.131 | 0.056 | B5
29 | 0.099 | – | B6
30 | 0.122 | 0.087 | B7
31 | 0.136 | 0.092 | B3
32 | 0.128 | 0.088 | B8
33 | 0.111 | 0.073 | B9
34 | 0.118 | – | B10

Target: T1, cyno CD40 on cyno spleen B cells
Experiment: cell-based or functional assay

Row | IC50, sCD40L-driven cyno B-cell proliferation [nM] | Binder
35 | 0.075 | B4
36 | 0.119 | B1
37 | 0.11 | B2
38 | 0.077 | B5
39 | 0.065 | B7
40 | 0.109 | B3
41 | 0.083 | B8
42 | 0.066 | B9
